Measurements: paper PMC9019090

Molecular target: FBXW7 (FBXW7α) (UniProt Q969H0)
Experiment: Co-IP and reciprocal co-IP, immunoblot
Settings: reference: Flag-ERRα wild type; sites S19,S22,S26

## ERRα (from UniProt P11474) Flag-ERRα 3SA (S19A+S22A+S26A)
  binding against the reference: weaker
